This note sets out measurements from article PMC6917914 (Nature chemical biology, 2019).

This assay deals with His6-DDA1 (full-length human DDA1) (human, UniProt Q9BW61 1-102). As to the kind of experiment: crystal structure.

B1: DCAF15_(split) (Strep II Avi-DCAF15 NTD residues 30-264 with Strep II Avi-DCAF15 CTD residues 383-600) (domain or fragment)
chain 1: GRRREHVLKQLERVKISGQLSPRLFRKLPPRVCVSLKNIVDEDFLYAGHIFLGFSKCGRYVLSYTSSSGDDDFSFYIYHLYWWEFNVHSKLKLVRQVRLFQDEEIYSDLYLTVCEWPSDASKVIVFGFNTRSANGMLMNMMMMSDENHRDIYVSTVAVPPPGRCAACQDASRAHPGDPNAQCLRHGFMLHTKYQVVYPFPTFQPAFQLKKDQVVLLNTSYSLVACAVSVHSAGDR
chain 2: EPGYVNYTKLYYVLESGEGTEPEDELEDDKISLPFVVTDLRGRNLRPMRERTAVQGQYLTVEQLTLDFEYVINEVIRHDATWGHQFCSFSDYDIVILEVCPETNQVLINIGLLLLAFPSPTEEGQLRPKTYHTSLKVAWDLNTGIFETVSVGDLTEVKGQTSGSVWSSYRKSCVDMVMKWLVPESSGRYVNRMTNEALHKGCSLKVLADSERYTWIVL
As to B1, the binding result is “binds”.
